Values of other authors in article PMC5727865.

Target: gp120 gp120 (Human immunodeficiency virus 1) (UniProt O70902)
Chain of UniProt O70902 (O70902 29-500): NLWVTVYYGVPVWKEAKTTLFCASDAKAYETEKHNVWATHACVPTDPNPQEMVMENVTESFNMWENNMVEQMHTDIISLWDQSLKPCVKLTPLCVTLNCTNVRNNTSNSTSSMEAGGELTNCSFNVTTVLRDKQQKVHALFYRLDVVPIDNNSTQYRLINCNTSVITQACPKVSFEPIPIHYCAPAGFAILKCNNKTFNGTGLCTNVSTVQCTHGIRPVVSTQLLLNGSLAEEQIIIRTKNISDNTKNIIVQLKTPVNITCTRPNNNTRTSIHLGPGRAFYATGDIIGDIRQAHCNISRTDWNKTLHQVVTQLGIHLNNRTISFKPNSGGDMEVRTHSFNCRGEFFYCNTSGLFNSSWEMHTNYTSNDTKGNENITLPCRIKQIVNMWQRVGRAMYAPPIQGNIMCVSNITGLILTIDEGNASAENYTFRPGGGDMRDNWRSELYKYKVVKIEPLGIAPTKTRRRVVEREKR

DC-SIGN (from UniProt Q9NNX6)
Kd: 1.7 nM
